4 molecules from paper PMC9337824 can be followed below.

Bounds are passed on as bounds.

One assay deals with Ligelizumab. The experiment in a line: SPR; IgG Fc antibodies covalently coupled to the sensor chip captured the anti-IgE mAbs (ligelizumab: Creative Biolabs, TAB755); Expi293-expressed human full-length IgE injected at 0.312–50 nM. On the technique in general: In SPR one partner is held on a chip, and binding of the other changes the refractive index at the surface.
A further assay concerns the target Omalizumab. The assay is described as above.
For assay [1], the target named is CD23 on SKW6.4 B lymphoma cells (human (endogenous in SKW6.4)) (UniProt P06734). Briefly: flow cytometry on cells; Alexa Fluor 647-conjugated UB-221, ligelizumab (UBP lot) or omalizumab at 0 to 10 μg/mL mixed with an equal volume of 15 μg/mL human IgE in PBS, 1 hour at room temperature; added to CD23^+ SKW6.4 cells for 30 minutes at 4°C. A general note: Flow cytometry measures light scatter and fluorescence of single cells or particles in a stream.
UniProt P06734, sequence (P06734 whole entry): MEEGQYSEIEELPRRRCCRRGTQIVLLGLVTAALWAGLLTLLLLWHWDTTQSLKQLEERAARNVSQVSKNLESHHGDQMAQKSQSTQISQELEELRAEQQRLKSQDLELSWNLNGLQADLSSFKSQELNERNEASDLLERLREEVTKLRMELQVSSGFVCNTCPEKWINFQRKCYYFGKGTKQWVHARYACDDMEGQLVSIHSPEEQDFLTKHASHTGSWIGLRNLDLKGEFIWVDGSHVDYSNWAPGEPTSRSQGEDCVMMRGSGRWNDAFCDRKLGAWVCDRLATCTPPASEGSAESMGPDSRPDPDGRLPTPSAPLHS

The target of assay [2] is IgE in sera of patients with atopic dermatitis (human (endogenous in patients' sera)). The experiment in a line: ELISA; sera of AD patients with high basal IgE (>24,000 ng/mL, n = 10) incubated 1 hour at room temperature with mAb at 0–75,000 ng/mL; remaining free IgE measured on plates coated with FcεRIα-Fcγ. In general terms: In an ELISA, binding on a coated surface is turned into a signal by an enzyme label.
IgE in sera of patients with atopic dermatitis (human (endogenous in patients' sera)), sequence (P01854 whole entry): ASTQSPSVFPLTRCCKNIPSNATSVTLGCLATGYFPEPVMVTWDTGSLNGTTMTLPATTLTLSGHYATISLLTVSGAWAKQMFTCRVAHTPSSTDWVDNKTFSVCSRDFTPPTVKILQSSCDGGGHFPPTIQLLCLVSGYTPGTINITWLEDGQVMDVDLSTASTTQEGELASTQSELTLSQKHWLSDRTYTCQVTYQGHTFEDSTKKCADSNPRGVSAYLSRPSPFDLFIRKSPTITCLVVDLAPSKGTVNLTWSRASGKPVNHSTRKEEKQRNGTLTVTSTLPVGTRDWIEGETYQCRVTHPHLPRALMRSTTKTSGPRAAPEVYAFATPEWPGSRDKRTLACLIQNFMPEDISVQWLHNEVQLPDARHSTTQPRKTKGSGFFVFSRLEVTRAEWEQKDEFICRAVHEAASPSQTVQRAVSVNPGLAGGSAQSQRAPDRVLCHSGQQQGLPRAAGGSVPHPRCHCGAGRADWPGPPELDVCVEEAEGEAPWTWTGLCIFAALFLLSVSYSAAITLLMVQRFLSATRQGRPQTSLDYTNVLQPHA

Assay [3] shares this target. Briefly: ELISA; sera of AD patients with low basal IgE (<4,800 ng/mL, n = 9) incubated 1 hour at room temperature with mAb at 0–4,000 ng/mL (ligelizumab: Creative Biolabs TAB-755); remaining free IgE measured on plates coated with FcεRIα-Fcγ.
Assay [4] addresses CD23-bound IgE on SKW6.4 cells (human | human (endogenous in SKW6.4)) (UniProt P01854). Briefly: flow cytometry on cells; CD23^+ SKW6.4 cells with 15 μg/mL human IgE for 30 minutes at 4°C, washed, then UB-221, ligelizumab (UBP lot) or omalizumab at 0–10 μg/mL in PBS for 30 minutes at 4°C; Brilliant Violet 421 anti-human IgG Fc.

With “Expi293-expressed human full-length IgE (from UniProt P01854 1-546) (natural protein)”, the values for the Kd with Ligelizumab and with Omalizumab were 0.016 nM and 0.23 nM, respectively.

In assay [1], “Preformed UB-221–IgE complex (from UniProt P01854 1-546)” displayed a maximum binding MFI of 1280 MFI.

In turn, “Preformed ligelizumab-IgE complex (from UniProt P01854 1-546)” displayed a maximum binding MFI in assay [1] of 191 MFI.

B1: Ligelizumab (antibody, V domains shown)
VH: QVQLVQSGAEVMKPGSSVKVSCKASGYTFSWYWLEWVRQAPGHGLEWMGEIDPGTFTTNYNEKFKARVTFTADTSTSTAYMELSSLRSEDTAVYYCARFSHFSGSNYDYFDYWGQGTLVTVSS
VL: EIVMTQSPATLSVSPGERATLSCRASQSIGTNIHWYQQKPGQAPRLLIYYASESISGIPARFSGSGSGTEFTLTISSLQSEDFAVYYCQQSWSWPTTFGGGTKVEIK
B1: the 90% effect concentration (EC90) in assay [2] is above 25 µg/mL; in assay [3] it was 1 µg/mL. For the same molecule, the maximum binding MFI in assay [4] turned out to be 503 MFI.

For orientation: Kd means the concentration at which binding is half-saturated. Low readings indicate tighter binding, high ones weaker binding. As usually defined, the EC90 is the point of the concentration-response curve where the effect stands at 90%. A lower EC90 goes with greater potency.
